In patent US12673971B2, “Amyloid-β aggregation inhibitor, pharmaceutical composition foramyloid-β aggregation disease, and use application of same” (O-FORCE CO., LTD, priority 2020, dated 2026):

How the values were obtained:
[1] = target: T1, Aβ25-35 aggregates (Homo sapiens, UniProt P05067); experiment: Dissociation of pre-formed Aβ25-35 aggregates (ThT fluorescence); type: biochemical; settings: 40 μL of 10 mmol/L peptide added to 4000 μL reaction solution with aggregates of 0.1 mM Aβ25-35 (24 h, 37° C.); 4 hr vs 0 hr, FIG. 7
T1 construct: The Aβ25-35 is a peptide constituted by 11 amino acid residues consisting of the 25th to 35th amino acid residues
Procedure: A reaction solution with the following composition was prepared and incubated at 37° C. for 24 hours to form aggregates of Aβ25-35. After incubation, the fluorescence intensities of the reaction solution with the following composition to which Aβ25-35 was added and a reaction solution to which water was added instead of Aβ25-35 were measured as in Example 1.
Then, 40 μL of 10 mmol/L Peptide 1 or Peptide 2 was added to 4000 μL of the reaction solution in which the aggregates were formed (0 hr), the mixture was incubated at 37° C., and the change in fluorescence intensity over time was measured (n=3). As a control, a reaction solution to which water was added instead of Peptide 1 and Peptide 2 was also measured at 0 hr in the same way. Then, the percentage (%) of decrease in fluorescence intensity after 4 hr was obtained from the fluorescence intensity at 0 hr.

[2] = target: T2, Aβ25-35 (Homo sapiens, UniProt P05067); experiment: ThT fluorescence of the solutions administered to the mouse groups; type: biochemical; settings: 0.5 μg/μL Aβ25-35 and 0.25 μg/μL Peptide 2 mixed in equal amounts, 37° C., day 11, vs Aβ25-35 solution, FIG. 3
T2 construct: The Aβ25-35 is a peptide constituted by 11 amino acid residues consisting of the 25th to 35th amino acid residues
Procedure: In parallel with the administration to the mice in each group, the fluorescence intensity was measured for the solutions administered to each group. Specifically, a mixed solution obtained by mixing 0.5 μg/μL Aβ25-35 and 0.25 μg/μL Peptide 2 in equal amounts, which was the same as that administered to the administration group, and a 0.5 μg/μL Aβ25-35 solution, which was the same as that administered to the negative control group, were each added in an amount of 100 μL per well, and 10 μL of 1 mmol/L ThT was further added to the well immediately before measurement. These reaction solutions were each reacted at 37° C., and the fluorescence intensity was measured as in Example 1 above.

[3] = system: C57BL/6 mice; experiment: Object recognition test (ORT); type: in vivo; settings: administration group Aβ25-35(+)/GSGFK(+), day 52 (test over 3 days from day 49), FIG. 6
Procedure: In this example, 2 μL of 0.5 μg/μL Aβ25-35 and 2 μL of 0.25 μg/μL Peptide 2 were directly administered using a micro syringe to the CA1 area of the hippocampus of the brain of the administration group of C57BL/6 mice (7 to 13 months old mice) (n=3). In a similar manner, 2 μL of 0.5 μg/μL Aβ25-35 was directly administered using a micro syringe to the CA1 area of the hippocampus of the brain of the negative control group of C57BL/6 mice (n=3). Neither 2 μL of Aβ25-35 nor Peptide 2 was administered to the positive control group of C57BL/6 mice (n=3). […]
The object recognition test (ORT) from day 49 was conducted as follows. […] For each group, the speed of movement of the mice in the cage was measured, as well as the percentage (%) of time they stayed in the center region of the cage (the inner region being at least 7.5 cm away from a side wall of the cage).
After one day, two identical objects were placed in the cage and the mice were allowed to explore freely for one hour (sample phase). […] Also, the approach time of the mice to each object was measured in each of the sample and test phases. The percentage of the exploration time for the object on the right side with respect to the total exploration time was then determined (100× right side exploration time/total exploration time (%)).

[4] = target: T2, Aβ25-35; experiment: Aggregation inhibition assay (thioflavin T fluorescence); type: biochemical; settings: 0.1 mM peptide, 0.1 mM Aβ25-35, 0.1 mM ThT, Tris-HCl pH 7.5, 37° C., FIG. 1; for fluorescence intensity of the reaction solution after 8 and 24 hours: vs negative control; for fluorescence intensity of the reaction solution 4 hours after incubation: vs negative control (Aβ25-35 only)
From the text: An Aβ-derived fragment peptide was used for aggregation of Aβ. Aβ25-35, which has high aggregability, was selected as the fragment peptide. The Aβ25-35 is a peptide constituted by 11 amino acid residues consisting of the 25th to 35th amino acid residues in the full length sequence of human-derived Aβ (GSNKGAIIGLM (SEQ ID NO: 4), hereinafter also referred to as Ab25-35).
The fluorescent dye thioflavin T (ThT) binds to Ab aggregates and emits strong fluorescence upon binding, and thus the increase or inhibition of aggregation can be determined by measuring the fluorescence intensity. Thus, the inhibition of aggregation of Aβ25-35 by Peptide 1 (GSGNR (SEQ ID NO: 1)) and Peptide 2 (GSGFK (SEQ ID NO: 2)) was checked using ThT.
Specifically, a reaction solution with the following composition was prepared and dispensed into wells such that the amount of the reaction solution per well was 300 μL, and incubated at 37° C., and the change in fluorescence intensity over time was measured using a measurement device (product name Cytation5, manufactured by BioTek) (n=3). The measurement wavelengths were set such that the excitation wavelength (ex) was 444 nm and the emission wavelength (em) was 480 nm. As a control, a reaction solution to which water was added instead of Peptide 1 and Peptide 2 was also measured in the same way.

[5] = target: T2, Aβ25-35; experiment: Concentration assay (ThT fluorescence, varied final peptide concentration); type: biochemical; settings: for fluorescence intensity compared with the negative control: 37° C.
Procedure: The concentrations of Peptide 1 (GSGNR (SEQ ID NO: 1)) and Peptide 2 (GSGFK (SEQ ID NO: 2)) with respect to Aβ25-35 were checked. Unless otherwise indicated, measurements were performed according to (2) above.
First, as for Peptide 2 (GSGFK (SEQ ID NO: 2)), 200 μL of mixed solution with the composition shown in Table 2 below was added per well, 10 μL of 2 mmol/L ThT was further added to the well immediately before measurement, and this reaction solution was incubated at 37° C. The change in fluorescence intensity 4 hours after the start of measurement was measured using the above-mentioned measurement device (n=3). Furthermore, reaction solutions with the following composition but with different final concentrations of Peptide 2 were also measured in the same way. As a negative control, a reaction solution with the following composition to which neither Peptides 1 nor 2 was added was also measured in the same way.
Next, as for Peptide 1 (GSGNR (SEQ ID NO: 1)), 200 μL of mixed solution with the composition shown in Table 2 above was added per well, 10 μL of 2 mmol/L ThT was further added to the well immediately before measurement, and this reaction solution was incubated at 37° C. The change in fluorescence intensity 8 hours after the start of measurement was measured using the above-mentioned measurement device (n=6). Furthermore, reaction solutions with the composition above but with different final concentrations of Peptide 1 were also measured in the same way. As a negative control, a reaction solution with the composition above to which neither Peptides 1 nor 2 was added was also measured in the same way.

[6] = system: C57BL/6 mice; experiment: Y-maze (short-term memory assessment) test; type: in vivo; settings: 2 μL of 0.5 μg/μL Aβ25-35 and 2 μL of 0.25 μg/μL Peptide 2 into hippocampal CA1; days 11, 27 and 39; vs negative control group (Aβ25-35 only), FIG. 4
Procedure: In this example, 2 μL of 0.5 μg/μL Aβ25-35 and 2 μL of 0.25 μg/μL Peptide 2 were directly administered using a micro syringe to the CA1 area of the hippocampus of the brain of the administration group of C57BL/6 mice (7 to 13 months old mice) (n=3). In a similar manner, 2 μL of 0.5 μg/μL Aβ25-35 was directly administered using a micro syringe to the CA1 area of the hippocampus of the brain of the negative control group of C57BL/6 mice (n=3). Neither 2 μL of Aβ25-35 nor Peptide 2 was administered to the positive control group of C57BL/6 mice (n=3). Each group was then given a Y-maze (short-term memory assessment) test on days 11, 27, and 39 after administration, and an object recognition test over 3 days starting from day 49. • Administration group (7 months old): Aβ25-35(+)/GSGFK(+) • Negative control group (7 months old): Aβ25-35(+)/GSGFK(−) • Positive control group (13 months old): Aβ25-35(−)/GSGFK(−)
The Y-maze test was conducted in a general manner under the following conditions. That is to say, mice were placed such that their noses faced the wall at an end of one particular arm among the three arms. The mice were allowed to move freely for 10 minutes, and their behavior was captured on a monitor of an analyzer (product name: Time YM1, manufactured by O'hara & Co., Ltd.) to calculate the alternation behavior rate (alternation behavior (%)).

[7] = Peptide 2, with respect to 100 μmol/L Aβ25-35, 4 hours, FIG. 2(A)
[8] = Peptide 1, with respect to 100 μmol/L Aβ25-35, 8 hours, FIG. 2(B)

Substance | decrease in fluorescence intensity 4 hours after peptide addition to pre-formed aggregates [1] | fluorescence intensity of the mixed solution on day 11 [2] | percentage of exploration time for the object on the right side, test phase compared with sample phase [3] | fluorescence intensity of the reaction solution after 8 and 24 hours [4] | fluorescence intensity of the reaction solution 4 hours after incubation [4] | fluorescence intensity compared with the negative control ([5]; Peptide 2, 100 μmol/L Aβ25-35, PBS, 4 hours after start of measurement, FIG. 2(A)) | final concentration at which aggregation was inhibited in a particularly excellent manner [5, 7] | final concentration at which aggregation was more effectively inhibited [5, 7] | final concentration at which aggregation was significantly inhibited sufficiently [5, 7] | alternation behavior rate (short-term memory) [6] | fluorescence intensity compared with the negative control ([5]; Peptide 1, 100 μmol/L Aβ25-35, PBS, 8 hours after start of measurement, FIG. 2(B)) | final concentration at which aggregation was inhibited in a particularly excellent manner [5, 8] | final concentration at which aggregation was significantly inhibited sufficiently [5, 8]
GSGFK [Peptide 2] | significant decrease in fluorescence intensity | did not show an increase in fluorescence intensity | significant increase in the percentage of exploration time for the object on the right side in the test phase | did not increase after 8 and 24 hours | slightly increased 4 hours after incubation, but it was well below the negative control | significantly reduced the fluorescence intensity | around 10 μmol/L | ≥ 10 µmol/L | ≥ 5 µmol/L | short-term memory is maintained as with the positive control group |  |  | 
GSGNR [Peptide 1] | significant decrease in fluorescence intensity |  |  | decreased significantly compared with the negative control after 8 and 24 hours | had increased 4 hours after incubation |  |  |  |  |  | significantly reduced the fluorescence intensity | around 10 μmol/L | ≥ 1 µmol/L
